{
  "source": "paper PMC4585913",
  "about": "“Crystal structure of Streptococcus pneumoniae pneumolysin provides key insights into early steps of pore formation” (Scientific Reports, 2015)",
  "proteins": {"B1": {"name": "Pneumolysin (Hexahis-PLY, wild type) (natural protein, Streptococcus pneumoniae)", "chain": "ANKAVNDFILAMNYDKKKLLTHQGESIENRFIKEGNQLPDEFVVIERKKRSLSTNTSDISVTATNDSRLYPGALLVVDETLLENNPTLLAVDRAPMTYSIDLPGLASSDSFLQVEDPSNSSVRGAVNDLLAKWHQDYGQVNNVPARMQYEKITAHSMEQLKVKFGSDFEKTGNSLDIDFNSVHSGEKQIQIVNFKQIYYTVSVDAVKNPGDVFQDTVTVEDLKQRGISAERPLVYISSVAYGRQVYLKLETTSKSDEVEAAFEALIKGVKVAPQTEWKQILDNTEVKAVILGGDPSSGARVVTGKVDMVEDLIQEGSRFTADHPGLPISYTTSFLRDNVVATFQNSTDYVETKVTAYRNGDLLLDHSGAYVAQYYITWNELSYDHQGKEVLTPKAWDRNGQDLTAHFTTSIPLKGNVRNLSVKIRECTGLAWEWWRTVYEKTDLPLVRKRTISIWGTTLYPQVEDKVEN", "notes": "Pneumolysin (PLY) of Streptococcus pneumoniae, wild type, cloned into pQE-30; the domains described span residues 1 to 470; The crystals run on SDS-AGE were grown without gold; Three residues of the His tag/linker are visible at the N-terminus of the model; It is written here as m1; also called native PLY; not shown: His6, N-terminal, kept"}},
  "target": "the molecule itself",
  "assay": "crystal structure; PLY 10.5 mg/ml co-crystallised with 5 mM KAu(CN)2 in 10% PEG 8000, 10% glycerol, 10% ethylene glycol, 100 mM HEPES pH 7.5; space group P212121, one molecule in the asymmetric unit; linear oligomer formed by crystal packing; 2.9 A",
  "data": [
    {"protein": "B1", "values": [
      {"measurement": "binding result", "value": "binds"}
    ]}
  ]
}
